Test [1] deals with T1, rHuman IGF-1 sR (insulin-like growth factor-1 soluble receptor), CF (R&D Systems Cat#391-GR) (human, UniProt P08069 31-932).
T1 construct: Bought recombinant soluble receptor; The column head prints only 'IGF-1'
Description: MSD multispot ECL, antigen spotted on plate, Fab in solution; blank spot of this row 184.

For test [2], the target named is T2, rHuman P-Cadherin/Fc Chimera, CF (R&D Systems Cat#861-PC) (human, UniProt P22223 108-654).
T2 construct: Bought recombinant protein; Fc part of the bought chimera not given
The description is as above.

The target of test [3] is T3, Recombinant Human DLL4 (R&D Systems Cat#1506-D4/CF) (human, UniProt Q9NR61 27-524).
T3 construct: Bought recombinant protein; also called delta-like protein 4; rHuman DLL4
The description is as above.

Test [4] has as its target T4, rHuman ErbB2/Fc Chimera, CF (R&D Systems Cat#1129-ER) (human, UniProt P04626 23-652).
T4 construct: Bought recombinant protein; Fc part of the bought chimera not given
The test is described as above.

The target in test [5] is T5, rHuman EGF R/Fc Chimera, CF (R&D Systems Cat#344-ER) (human, UniProt P00533 25-645).
T5 construct: Bought recombinant protein; Fc part of the bought chimera not given
Described as above.

Test [6] concerns the target T6, rHuman HGF R/c-MET/Fc Chimera, CF (R&D Systems Cat#358-MT/CF) (human, UniProt P08581 25-932).
T6 construct: Bought recombinant protein; also called HGF R/Fc; Fc part of the bought chimera not given
Described as above.

Test [7] deals with T1, rHuman IGF-1 sR (insulin-like growth …). Description: MSD multispot ECL, antigen spotted on plate, Fab in solution; blank spot of this row 254.
The target of test [8] is T2, rHuman P-Cadherin/Fc Chimera, CF (R&D …). The description is as above.
Test [9] concerns the target T3, Recombinant Human DLL4 (R&D Systems …). The description is as above.
For test [10], the target named is T4, rHuman ErbB2/Fc Chimera, CF (R&D …). Described as above.
Test [11] addresses T5, rHuman EGF R/Fc Chimera, CF (R&D …). The description is as above.
The target in test [12] is T6, rHuman HGF R/c-MET/Fc Chimera, CF (R&D …). Described as above.
Test [13] has as its target T1, rHuman IGF-1 sR (insulin-like growth …). In words: MSD multispot ECL, antigen spotted on plate, Fab in solution; blank spot of this row 338.
Test [14] addresses T2, rHuman P-Cadherin/Fc Chimera, CF (R&D …). The test is described as above.
Test [15] deals with T3, Recombinant Human DLL4 (R&D Systems …). The test is described as above.
For test [16], the target named is T4, rHuman ErbB2/Fc Chimera, CF (R&D …). Described as above.
Test [17] concerns the target T5, rHuman EGF R/Fc Chimera, CF (R&D …). The test is described as above.
In test [18] the target is T6, rHuman HGF R/c-MET/Fc Chimera, CF (R&D …). The test is described as above.
Test [19] concerns the target T1, rHuman IGF-1 sR (insulin-like growth …). In words: MSD multispot ECL, antigen spotted on plate, Fab in solution; blank spot of this row 407.
Test [20] deals with T2, rHuman P-Cadherin/Fc Chimera, CF (R&D …). The description is as above.
For test [21], the target named is T3, Recombinant Human DLL4 (R&D Systems …). The test is described as above.
In test [22] the target is T4, rHuman ErbB2/Fc Chimera, CF (R&D …). The description is as above.
Test [23] has as its target T5, rHuman EGF R/Fc Chimera, CF (R&D …). The description is as above.
Test [24] deals with T6, rHuman HGF R/c-MET/Fc Chimera, CF (R&D …). The test is described as above.
Test [25] addresses T7, Recombinant Human DLL4 (delta-like protein 4) (human, UniProt Q9NR61 27-524).
T7 construct: Bought recombinant human DLL4 (R&D Systems Cat#1506-D4/CF); also called rHuman DLL4; Delta-like ligand 4
Description: SPR, Fab on recombinant human DLL4. A general note: SPR reads the build-up and loss of mass on a sensor chip optically.

Test [26] addresses T7, Recombinant Human DLL4 (delta-like …). In words: SPR, Fab on recombinant human DLL4; two-site binding, this site 10% by the footnote.
Test [27] shares this target. In words: SPR, Fab on recombinant human DLL4; two-site binding, this site 89% by the footnote.

The values below come from patent US20120316071A1 (published 2012).

In general, koff refers to the rate constant with which the complex falls apart. What is called kon is a measure of how fast the partners come together. One may read the Kd as the free concentration of one partner at which half of the binding sites on the other are occupied at equilibrium, for simple one-to-one binding.

T6 sequence (P08581 25-932, change not shown): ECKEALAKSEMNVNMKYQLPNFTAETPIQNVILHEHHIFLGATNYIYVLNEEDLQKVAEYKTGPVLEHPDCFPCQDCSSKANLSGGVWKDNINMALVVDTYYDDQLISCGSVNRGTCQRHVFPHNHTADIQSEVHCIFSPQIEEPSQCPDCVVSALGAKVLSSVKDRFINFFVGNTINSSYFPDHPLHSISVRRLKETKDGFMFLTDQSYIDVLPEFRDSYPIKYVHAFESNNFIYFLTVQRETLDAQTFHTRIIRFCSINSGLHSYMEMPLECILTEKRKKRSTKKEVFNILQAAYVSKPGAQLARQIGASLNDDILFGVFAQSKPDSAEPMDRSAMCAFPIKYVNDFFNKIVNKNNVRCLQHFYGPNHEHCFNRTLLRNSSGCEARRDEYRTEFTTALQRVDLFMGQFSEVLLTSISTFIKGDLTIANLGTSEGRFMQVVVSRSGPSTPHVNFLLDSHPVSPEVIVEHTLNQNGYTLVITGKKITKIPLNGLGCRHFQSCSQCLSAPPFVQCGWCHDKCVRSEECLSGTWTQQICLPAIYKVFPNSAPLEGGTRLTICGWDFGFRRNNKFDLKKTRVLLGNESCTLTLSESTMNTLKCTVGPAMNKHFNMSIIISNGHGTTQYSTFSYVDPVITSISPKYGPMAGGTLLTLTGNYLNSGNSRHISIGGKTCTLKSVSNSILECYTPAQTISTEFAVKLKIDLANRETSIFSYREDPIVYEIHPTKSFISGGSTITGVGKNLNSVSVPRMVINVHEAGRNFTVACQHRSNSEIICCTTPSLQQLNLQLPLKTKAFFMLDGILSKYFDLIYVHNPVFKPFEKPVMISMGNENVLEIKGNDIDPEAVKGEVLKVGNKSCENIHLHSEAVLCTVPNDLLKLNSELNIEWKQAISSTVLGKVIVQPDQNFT

B1: Fab VH1-46_IGHD6-6*01_IGHJ1*01 S102A/S103P/S104F/H111F (H:APFF) & L6_IGKJ1*01 (Fab, V domains shown)
VH: QVQLVQSGAEVKKPGASVKVSCKASGYTFTSYYMHWVRQAPGQGLEWMGIINPSGGSTSYAQKFQGRVTMTRDTSTSTVYMELSSLRSEDTAVYYCAREEYAPFSAEYFQFWGQGTLVTVSS
VL: not shown
notes: Fab expressed in E. coli from plasmid A (CH1, His6 and Flag tags) and plasmid C (kappa CL); also called wildtype (light chain); H:APFF & L:wt
As to B1, the ECL signal in test [1] worked out at 173; in [2], 240; in test [3], 132000; in test [4], 322; in test [5], 409; in test [6] it was 263. Also, the ECL signal in [7] was 306; in test [8] it was 138; in [9], 148000; in test [10], 351; in test [11] it was 209; in test [12], 176. Moreover, the ECL signal in test [13] stood at 468; in test [14] it was 399; in [15], 149000; in [16], 379; in test [17], 425; in [18], 332. For the same molecule, the ECL signal was determined as 357 in test [19]; 277 in test [20]; 126000 in test [21]; 292 in test [22]; 329 in test [23]; 237 in test [24].

B2: Fab VH1-46_IGHD6-6*01_IGHJ1*01 S102A/S103P/S104F/H111F (APFF) & L6_IGKJ1*01 S28N/S30D/S31H (NDH) (Fab, V domains shown)
VH: B1 VH
VL: EIVLTQSPATLSLSPGERATLSCRASQNVDHYLAWYQQKPGQAPRLLIYDASNRATGIPARFSGSGSGTDFTLTISSLEPEDFAVYYCQQRSNWPPWTFGQGTKVEIKR
notes: Fab with CH1 (Plasmid A, His6 and Flag tags) and kappa CL (Plasmid C); Some paragraphs print S28D/S30N/S31H for the same NDH chain; also called H:APFF & L:NDH; APFF-NDH
For B2, in test [25], the koff was found to be 0.0689 s⁻¹ and the on-rate (kon) worked out at 444000 M⁻¹ s⁻¹. The Kd in test [26] worked out at 14 nM. Besides, in [27], the Kd amounted to 155 nM.
